Experimental data taken from article PMC8071527, “Substrate Specificity of Chimeric Enzymes Formed by Interchange of the Catalytic and Specificity Domains of the 5′-Nucleotidase UshA and the 3′-Nucleotidase CpdB” (Molecules, 2021).

What was measured:
Test in all cases: phosphate release, colorimetric, saturation kinetics
Format in all cases: biochemical, Escherichia coli
Conditions in all cases: Mn2+; alkaline phosphatase as auxiliary enzyme
[1] = tested on: O=c1ccn([C@@H]2O[C@H](CO[P@@](=O)(O)O[P@@](=O)(O)O[C@H]3O[C@H](CO)[C@@H](O)[C@H](O)[C@H]3O)[C@@H](O)[C@H]2O)c(=O)[nH]1
Description: (§1) phosphate release, colorimetric, saturation kinetics on CpdB_Ndom–UshA_Cdom

[2] = tested on: O=[N+]([O-])c1ccc(OP(=O)(O)Oc2ccc([N+](=O)[O-])cc2)cc1
Description: as §1

[3] = tested on: C[N+](C)(C)CCOP(=O)(O)OP(=O)([O-])OC[C@H]1O[C@@H](n2ccc(N)nc2=O)[C@H](O)[C@@H]1O
Description: as §1

[4] = tested on: Nc1ncnc2c1ncn2[C@@H]1O[C@H](CO)[C@H]2OP(=O)(O)O[C@H]21
Description: as §1

[5] = tested on: O=c1ccn([C@@H]2O[C@H](CO[P@@](=O)(O)O[P@@](=O)(O)O[C@H]3O[C@H](CO)[C@@H](O)[C@H](O)[C@H]3O)[C@@H](O)[C@H]2O)c(=O)[nH]1; remark: listed apart in the source
Description: (§2) phosphate release, colorimetric, saturation kinetics on UshA_Ndom–CpdB_Cdom

[6] = tested on: O=[N+]([O-])c1ccc(OP(=O)(O)Oc2ccc([N+](=O)[O-])cc2)cc1; remark: listed apart in the source
Description: as §2

[7] = tested on: C[N+](C)(C)CCOP(=O)(O)OP(=O)([O-])OC[C@H]1O[C@@H](n2ccc(N)nc2=O)[C@H](O)[C@@H]1O; remark: listed apart in the source
Description: as §2

[8] = tested on: Nc1ncnc2c1ncn2[C@@H]1O[C@H](CO)[C@H]2OP(=O)(O)O[C@H]21; remark: listed apart in the source
Description: as §2

Substance: CpdB_Ndom–UshA_Cdom (Escherichia coli)
- Km [1]: 5900 ± 1900 µM
- kcat [1]: 0.2 ± 0.1 s⁻¹
- kcat/Km [1]: 40 ± 8 M⁻¹ s⁻¹
- Km [2]: 1400 ± 60 µM
- kcat [2]: 208 ± 77 s⁻¹
- kcat/Km [2]: 150000 ± 55000 M⁻¹ s⁻¹
- Km [3]: 3900 ± 600 µM
- kcat [3]: 11 ± 3 s⁻¹
- kcat/Km [3]: 2700 ± 300 M⁻¹ s⁻¹
- Km [4]: 370 ± 40 µM
- kcat [4]: 117 ± 24 s⁻¹
- kcat/Km [4]: 320000 ± 80000 M⁻¹ s⁻¹

Substance: UshA_Ndom–CpdB_Cdom (Escherichia coli)
- Km [5]: 5000 ± 1700 µM
- kcat [5]: 0.1 ± 0.01 s⁻¹
- kcat/Km [5]: 20 ± 10 M⁻¹ s⁻¹
- Km [6]: 670 ± 120 µM
- kcat [6]: 45 ± 3 s⁻¹
- kcat/Km [6]: 68000 ± 13000 M⁻¹ s⁻¹
- Km [7]: 1400 ± 400 µM
- kcat [7]: 0.3 ± 0.01 s⁻¹
- kcat/Km [7]: 210 ± 60 M⁻¹ s⁻¹
- Km [8]: 1100 ± 350 µM
- kcat [8]: 3.6 ± 1 s⁻¹
- kcat/Km [8]: 3400 ± 1300 M⁻¹ s⁻¹
